Experimental data from US20050013820A1 (REGENTS OF THE UNIVERSITY OF MICHIGAN, published 2005).

How the values were obtained:
[1] = biological target: T1, cell surface calreticulin on human fibroblastoid M1 cells (human, UniProt P27797 18-417); assay: cell-based or functional assay
T1 sequence (looked up): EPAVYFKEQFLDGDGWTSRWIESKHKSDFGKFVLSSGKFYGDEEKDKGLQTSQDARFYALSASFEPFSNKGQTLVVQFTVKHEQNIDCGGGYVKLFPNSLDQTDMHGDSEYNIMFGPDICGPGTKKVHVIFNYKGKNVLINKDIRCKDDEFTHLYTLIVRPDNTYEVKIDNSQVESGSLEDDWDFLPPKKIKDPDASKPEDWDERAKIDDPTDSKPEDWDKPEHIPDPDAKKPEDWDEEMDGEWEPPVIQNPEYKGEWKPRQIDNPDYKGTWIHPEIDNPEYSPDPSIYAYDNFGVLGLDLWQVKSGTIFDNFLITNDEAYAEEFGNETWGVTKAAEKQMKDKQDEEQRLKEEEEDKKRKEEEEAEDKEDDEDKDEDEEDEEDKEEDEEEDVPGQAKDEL

[2] = biological target: T2, recombinant human calreticulin (human, UniProt P27797 18-417); assay: SPR (Biacore 2000), calreticulin immobilized on CM5
T2 construct: Expressed in E. coli as a GST fusion; also called Crt; purified recombinant calreticulin
T2 sequence: T1 sequence (looked up)
Description: Prior to use, biosensor chips CM5 were docked into a Biacore® 2000 and preconditioned in water at 100 μl/min by applying two consecutive 20-μl pulses of 50 mM NaOH, then 10 mM HCl, and finally 0.1% SDS. […] Immobilizations were conducted at 25° C. in HBS-EP (10 mM HEPES, pH7.4, 150 mM NaCl, 1 mM EDTA, 0.005% Surfactant P-20), with a flow of 10 μl/min. The CM5 surface was activated by 7 min injection of 200 mM EDC/50 mM NHS to prepare a high-capacity surface, with manual injection of 100 μg/ml calreticulin until 5500 RU level was approached. Then 100 μl of 1M ethanolamine was used to block remaining activated group.
Calreticulin and peptide binding were performed at 25° C. in binding buffer (10 mM HEPES, pH8.0, 50 mM KCl, 0.5 mM CaCl₂, 1% Triton-X100), with a flow rate of 10 μl/min. […] Binding assays were repeated at least 3 times. Kinetic analysis was performed using Kinetic separate kₐ/kd fitting in BIA evaluation 3.0 software.

Binder: DKCLA [pentapeptide DKCLA]
- inhibition of NO induction by Sepharose bead-bound 65-79*0401 in M1 cells; IC50 [1]: ~35 µM

Binder: QKRAE (Synthetic pentapeptide) [pentapeptide QKRAE]
- binding result [2]: no binding

Binder: KDLLEQKRAAVDTY [peptide 65-78*0401]
- inhibition of cAMP-mediated (2CA-induced) DNA repair induction in cells; IC50 [1]: ~250 nM
